Biological target: CENP-T^HFD/-W complex, Q5EE01
Experiment: GST pull-down (Coomassie gel quantification)
Conditions: chain shown with the change, parent: est. 100, read off a plot

Chain of CENP-T^HFD/-W complex, Q5EE01 (chain, as listed by the source, chain 1 of 2): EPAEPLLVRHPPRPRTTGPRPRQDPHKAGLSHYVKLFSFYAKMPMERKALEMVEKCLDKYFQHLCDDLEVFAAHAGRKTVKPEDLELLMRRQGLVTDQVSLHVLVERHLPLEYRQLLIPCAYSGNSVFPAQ
Chain of CENP-T^HFD/-W complex, Q5EE01 (Q5EE01 whole entry, chain 2 of 2): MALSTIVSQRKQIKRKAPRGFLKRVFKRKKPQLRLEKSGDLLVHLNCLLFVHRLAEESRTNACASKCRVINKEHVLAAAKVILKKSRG

percent of parent (Exp=1): 81 % Pull-down
percent of parent (Exp=2): 90 % Pull-down
Binder: EPEGEGSDAAAAAAESEIEDETFNPSEDDYEEEEEDSDED [GST-Spt16 amino acids 926–965, Q9Y5B9 E935A; E936A; G937A; D938A; S939A]

From PMC4911930
